# Reference: patent publication US20150299797A1, “COMPOSITIONS AND METHODS RELATING TO BLOOD-BASED BIOMARKERS OF BREAST CANCER” (UNIVERSITY OF UTAH RESEARCH FOUNDATION, priority 2012, published 2015)
# “Also recorded” adds a separate entry of the source.
# B1: TRAIL: TNF-related apoptosis inducing ligand (TRAIL), from Millipore (protein, UniProt P50591 1-281, looked up)
# Tumor necrosis factor ligand …: MAMMEVQGGPSLGQTCVLIVIFTVLLQSLCVAVTYVYFTNELKQMQDKYSKSGIACFLKEDDSYWDPNDEESMNSPCWQVKWQLRQLVRKMILRTSEETISTVQEKQQNISPLVRERGPQRVAAHITGTRGRSNTLSSPNSKNEKALGRKINSWESSRSGHSFLSNLHLRNGELVIHEKGFYYIYSQTYFRFQEEIKENTKNDKQMVQYIYKYTSYPDPILLMKSARNSCWSKDAEYGLYSIYQGGIFELKENDRIFVSVTNEHLIDMDHEASFFGAFLVG
# Test system: normal mammary epithelial cells from high-risk (HBC) women or control women
# Experiment: Drug response assay (CellTiter-Glo cell viability, dose-response)
# Format: cell-based, human
# Conditions: HBC/high-risk vs control, viability after 96 hours, TRAIL p-value<0.001
# Protocol: Normal mammary epithelial cells isolated from either high-risk women undergoing prophylactic mastectomy or control women with no family history of breast cancer undergoing breast-reduction surgery for non-cancer related health issues were isolated, and single-cell suspensions were generated. 1500 cells/well for each patient samples were plated in 40 microliters of MEBM basal media supplemented with a MEGM Bulletkit [Lonza] in half-well 96-well plates [Nunc] in triplicate for each drug dose. After 24 hours, TRAIL, Afatinib, Gefitinib, and EGF were added. The indicated doses were chosen within the average linear range of drug effect: TRAIL (0.1 ng/mL-5.0 ng/ml), Afatinib (10 nM-[…]), Gefitinib (0.001 mM-0.5 mM), EGF (5 ng/mL-500 ng/mL) [Millipore (TRAIL) and Selleckchem]. A BIOMEK 3000 (Beckman Coulter, Brea, Calif., USA) robot was used to seed the cells and dispense the drugs. After 96 hours, cell viability was quantified using the CellTiter-Glo Luminescent Cell Viability Assay [Promega]. The proportion of viable cells was calculated for each dosage by comparing against cell counts for non-treated cells. A summary value was calculated for each cell line as the slope of a linear-regression line fitted to the cell-count proportions.
molecule,measurement,value
B1,"response of primary breast cells of HBC women compared to controls (proportion of viable cells, slope of fitted dose-response)",significantly increased response; also recorded: significantly more responsive
